The target in assay [1] is human NCAM Ig1-2 Fc fusion protein (human). The assay can be described thus: pull-down; 1 ug of neurocan (human or mouse) incubated with 1 ug of Fc protein in TBS for 1 hr at 37 C; Fc proteins pulled down with Protein A/G Sepharose beads; immunoblot, densitometry.
Assay [2] deals with human NCAM Ig2 Fc fusion protein (human). The description is as above.
Assay [3] addresses human NCAM Ig1 Fc fusion protein (human). Described as above.
Assay [4] concerns the target human NCAM Ig1-3 Fc fusion protein (human). The description is as above.
In assay [5] the target is NCAM K162D mutant expressed in HEK293T cells (UniProt P13591). The assay can be described thus: co-IP; lysates (1 mg, RIPA buffer) of HEK293T cells transfected with NCAM140, NCAM mutants or EphA3, incubated with recombinant neurocan; precipitated with antibodies against NCAM (H-300) or EphA3 (C-19) and Protein A/G agarose; immunoblot for neurocan, densitometry. A general note: Immunoblotting shows a protein as a band on a membrane.

Assay [6] deals with NCAM R156E mutant expressed in HEK293T cells (UniProt P13591). The description is as above.
Assay [7] has as its target human NCAM Ig1-5/FN1-2 Fc fusion protein (full-length NCAM-EC) (human) (UniProt P13591). The assay can be described thus: pull-down; 1 ug of neurocan (human or mouse) incubated with 1 ug of Fc protein in TBS for 1 hr at 37 C; Fc proteins pulled down with Protein A/G Sepharose beads; immunoblot, densitometry.

On to “recombinant human neurocan (full-length protein) (from UniProt O14594 23-1321) (natural protein)”, for which the neurocan bound, percent of the amount bound to NCAM-EC-Fc in assay [1] was determined as 33%; in assay [2], 129%; in assay [3], 23%; in assay [4] it was 50%. The results for the neurocan co-immunoprecipitated, percent of WT NCAM in assay [5] and in assay [6] were 41 % of WT and 32 % of WT, respectively.

Take “recombinant mouse neurocan Glu23-637 (a truncation lacking the sushi domain) (from UniProt P55066 23-637) (domain or fragment)”: the neurocan bound to NCAM-EC-Fc, percent of the human neurocan level in assay [7] was 93%.

Values taken from article PMC5906663.
